Values joined by “and” are separate entries in the source; they are usually repeats but may differ in a detail not shown here. Equal values may be shown once. “Also recorded” adds a separate entry of the source.
B1: GR6A04-MMAE (conjugate)
VH: SGPELVKPGASVKMSCKASGNTFTSYVMHWVKQKPGQGLEWIGYINPYNDGTKYNEKFKGKATLTSDKSSSTAYMELSSLTSEDSAVYYCARSTARATPYFYAMDYWGQGTSVTVSS
VL: DILMTQSPSSLAVTAGEKVTMRCKSSQSLLWSVNQNSYLSWYQLKQGQPPKLLLYGASIRESWVPDRFTGSGSGTDFTLTISNVHVEDLAVYYCQHNHGSFLPYTFGGGTKLEIK
B2: Hu-GR6A04: human chimeric mAb with GR6A04 VH and VL cloned into a human Ig constant region backbone, expressed in CHO cells (antibody, V domains shown)
VH: B1 VH
VL: B1 VL

Assays:
PC-9 and A549 cells = assay: Flow cytometry binding of GR6A04 derivatives; format: cell-based
Protocol: Cells were harvested as single cell suspensions using trypsin. 1E5 cells were used per sample, and incubated with 100 μl of mAb culture supernatant for 30 min. Cells were then washed with 1% bovine serum albumin in PBS, and further incubated with 100 μl of goat anti-mouse antibody fluorescein isothiocyanate (FITC)-conjugated (1:500, DAKO, Denmark) for 15 min at 4° C. in the dark. Cells were again washed and resuspended in 200 μL of 1% BSA/PBS for analysis on Guava® easy Cyte 8HT Benchtop Flow Cytometer (Merck Millipore, USA). For interrogation of […] binding, cells were fixed with 4% PFA/PBS (Affymetrix, USA) at room temperature for 10 min, washed in PBS, and permeabilised with 0.1% triton/PBS for 5 min at room temperature, before proceeding with incubation with mAb supernatant/primary antibody. For staining with propidium iodide, PI was added to a final concentration of 5 μg/mL for 5 min just prior to analysis by the flow cytometer.

A549−GR6A04+ cells [1] = assay: ADC dose-response, CellTiter-Glo viability assay; format: cell-based; details: viability 4 days post treatment
Protocol: (§1) Cells were seeded into a black coated 96 well plate (Grenier Bio-one, UK) at a range of density from 1000-5000 cells per well (depending on the cell type used) and 90 μL per well. The plate was then incubated for 24 hours at 37° C. in humidified air with 5% CO2. After 24 hours, 10 μL of mAb or buffer was added to each well and the plate was again placed at 37° C. in humidified air with 5% CO2. 4 days after addition of mAb or buffer, 100 μL of CTG substrate (Promega, Wisconsin, USA) was added to each well. The plate was then left in the dark for 10 minutes, with vigorous shaking. The cell viability of the samples was then quantified using Tecan I-control (Tecan, Switzerland).
(§2) GR6A04 and a commercial mouse IgG1 isotype antibody (Clone MG1.45 from BioLegend) were directly conjugated with MMAE toxin (Moradec, San Diego, USA) at a DAR of 3.0 and 3.3 respectively. Dose-response curve for the conjugated mAbs were established with the CTG assay with a serial dilution range of 0 to 4.5 μg/ml. The cell viability of the cells was measure 4 days post treatment as described previously.

A549−GR6A04− populations = assay: ADC dose-response, CellTiter-Glo viability assay; format: cell-based; details: A549−GR6A04− non-binding cells
Protocol: as §1, §2

H1299 = assay: ADC dose-response, CellTiter-Glo viability assay; format: cell-based; details: H1299 non-binding cells
Protocol: as §1, §2

PC-9 [2] = assay: ADC dose-response, CellTiter-Glo viability assay; format: cell-based; details: viability 4 days post treatment
Protocol: as §1, §2

A549−GR6A04+ cells [3] = assay: Subcutaneous xenograft model; format: in vivo, NCr Nude mice; details: for tumour growth versus buffer control: 10 mg/kg, 3 doses on D0, D4 and D8, start at tumour size >150 mm3
Protocol: Xenograft models were established using A549−GR6A04+ cells in NCr Nude mice. 5E6 cells in DMEM basal media were mixed at a 1:1 ratio with Matrigel, and injected subcutaneously at a volume of 200 μl. Tumours were allowed to form and reach a size of >150 mm^3, before they were randomised into 5 groups of 5 mice each. The groups were treated with mAbs as follows: (1) Buffer control; (2) GR6A04-MMAE; (3) Hu-GR6A04; (4) GR6A04; (5) MG1.45-MMAE isotype control. mAbs were injected via tail vein injection at a total volume of 100 μl. Each dose, were applicable, is at 200 μg (equivalent to 10 mg/kg), and treatment was done every 4 days, for a total of 3 doses (Day 0, 4 and 8). Tumour size was monitored over 50 days.

A549−GR6A04+ = assay: ADCC reporter bioassay (Promega, Luciferase reporter for FcγR); format: cell-based
Protocol: (§3) ADCC activity was measured using a reporter bioassay (Promega; ADCC Reporter Bioassay, #G7010). The ADCC bioassay was carried out according to the manufacturer's protocol Briefly, PC-9 and A549 cells were seeded at 5,000 cells per well in a 96-well clear bottom black tissue culture plates (Corning; #3904) in low 4% IgG-serum (Promega; #G711A) media and allowed to attach and spread overnight. Serial dilutions of Hu-GR6A04 were incubated in triplicate wells for approximately 15 min at 37° C., 5% CO2. Following incubation, engineered effector cells were added to the wells at approximately 150,000 cells per well. After 6 hours, Bio-Glo™ Luciferase Assay Substrate (Promega; #G719A and #G720A) was added to the wells and luminescence was measured using the Infinite® 200 microplate reader (Tecan).

PC-9 [4] = assay: as above; format: cell-based
Protocol: as §3

Molecule	flow cytometry binding (PC-9 and A549 cells)	EC50 (A549−GR6A04+ cells [1])	effect on cell growth (A549−GR6A04− populations)	effect on cell growth (H1299)	EC50 (PC-9 [2])	tumour growth versus buffer control (A549−GR6A04+ cells [3])	tumour growth (A549−GR6A04+ cells [3]; I.V. 10 mg/kg, every 4 days for 3 doses, throughout the 45 days of study)	EC50 (A549−GR6A04+)	EC50 (PC-9 [4])
B1	comparable to unconjugated GR6A04; also recorded: not affected after conjugation	3.33 nM	did not have an effect on cell growth	did not have an effect on cell growth	19.8 nM and 19.6 nM	little tumour growth	< 2 fold	–	–
B2	comparable to GR6A04	–	–	–	–	repression of tumour growth; also recorded: slower growth compared to the buffer control	–	1.33 nM	39.6 nM

Reference: patent publication US12227570B2, “Anti-CEACAM6 antibodies and methods of use” (Singapore Health Services PTE LTD, priority 2016, dated 2025)
